Measured values as given in patent US20180193454A1 (IMMUNEXT, published 2018).
Substitutions are numbered along the chain they refer to.

B1: IDEC-131, humanized anti-human CD154 IgG1 antibody (antibody, V domains shown)
VH: EVQLQESGPGLVKPSETLSLTCTVSGDSITNGFWIWIRKPPGNKLEYMGYISYSGSTYYNPSLKSRISISRDTSKNQFSLKLSSVTAADTGVYYCACRSYGRTPYYFDFWGQGTTLTVSS
VL: DIVMTQSPSFLSASVGDRVTITCKASQNVITAVAWYQQKPGKSPKLLIYSASNRYTGVPDRFSGSGSGTDFTLTISSLQPEDFADYFCQQYNSYPYTFGGGTKLEIK
notes: Humanized human IgG1 derived from mouse antibody 24-31
B2: INX021 (variant 21), humanized anti-human CD154 IgG1 antibody derived from IDEC-131 (antibody, V domains shown)
VH: B1 VH with C97Y, F109Y
VL: B1 VL with Q27S, V29L, I30G, T31H, N92D, S93D
B3: variant 22, humanized anti-human CD154 antibody derived from IDEC-131 (antibody, V domains shown)
VH: B1 VH with C97Y, F109Y
VL: B1 VL with Q27S, V29L, I30G, T31N, N92D, S93D
B4: variant 23, humanized anti-human CD154 antibody derived from IDEC-131 (antibody, V domains shown)
VH: B1 VH with C97Y, F109Y
VL: B1 VL with A25G, Q27S, N28P, V29L, I30G, T31H, N92D, S93D
notes: also called combination #23
B5: variant 24, humanized anti-human CD154 antibody derived from IDEC-131 (antibody, V domains shown)
VH: B1 VH with C97Y, F109Y
VL: B1 VL with S26P, V29L, I30G, N92D, S93D
B6: variant 25, humanized anti-human CD154 antibody derived from IDEC-131 (antibody, V domains shown)
VH: B1 VH with C97Y, F109Y
VL: B1 VL with V29L, I30N, T31H, N92D, S93D
B7: variant 26, humanized anti-human CD154 antibody derived from IDEC-131 (antibody, V domains shown)
VH: B1 VH with C97Y, F109Y
VL: B1 VL with N28H, V29L, I30G, N92D, S93D
B8: variant 27, humanized anti-human CD154 antibody derived from IDEC-131 (antibody, V domains shown)
VH: B1 VH with C97Y, F109Y
VL: B1 VL with N28H, V29L, I30G, T31H, N92D, S93D
B9: variant 28, humanized anti-human CD154 antibody derived from IDEC-131 (antibody, V domains shown)
VH: B1 VH with C97Y, F109Y
VL: B1 VL with S26P, Q27S, N28S, V29L, I30G, T31H, N92D, S93D
B10: variant 29, humanized anti-human CD154 antibody derived from IDEC-131 (antibody, V domains shown)
VH: B1 VH with C97Y, F109Y
VL: B1 VL with A25G, S26N, N28P, V29L, I30G, T31H, N92D, S93D
B11: variant 30, humanized anti-human CD154 antibody derived from IDEC-131 (antibody, V domains shown)
VH: B1 VH with C97Y, F109Y
VL: B1 VL with S26G, Q27H, N28S, V29L, I30G, N92D, S93D
B12: variant 31, humanized anti-human CD154 antibody derived from IDEC-131 (antibody, V domains shown)
VH: B1 VH with C97Y, F109Y
VL: B1 VL with S26N, N28P, V29L, I30G, T31H, N92D, S93D

Key:
[1] = target: T1, human CD154 (human, UniProt P29965 113-261, limits assumed); experiment: SPR, Biacore 3000, 25 C; antibody immobilized, CD154 antigen flowed over; average n = 6
T1 construct: also called CD154 antigen; CD40L
T1 sequence (looked up): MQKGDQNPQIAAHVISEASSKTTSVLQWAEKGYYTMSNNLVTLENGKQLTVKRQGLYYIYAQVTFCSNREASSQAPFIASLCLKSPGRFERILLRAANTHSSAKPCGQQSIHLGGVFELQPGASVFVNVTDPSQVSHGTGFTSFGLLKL
Experimental: (§1) Binding experiments were performed on Biacore […] at 25° C. […] Binding of antigen to the tested antibodies was monitored in real time. From the observed kₒₙ, the koff and KD was determined for each variant.
(§2) Scoring analysis was performed using specific analyte concentrations. At the tested concentration, binding should be observed even if the ligand binding affinity is relatively weak. Full kinetics may be performed by known methods. For the molecular interactions with fast off rate, steady state kinetics may be used to determine the KD value.

[2] = target: T2, CD154 expressed on cells (CD154 expressing Jurkat cells; T cell CD154) (UniProt P29965 1-261, limits assumed); experiment: binding to CD40L (CD154) expressing Jurkat cells, readout % normalized mean MFI (panel title 'CD40L Jurkat Binding'; legend paragraph 14 calls it a BIAcore assay)
T2 construct: whole, on cells; also called CD154 (expressed on Jurkat cells)
T2 sequence (looked up): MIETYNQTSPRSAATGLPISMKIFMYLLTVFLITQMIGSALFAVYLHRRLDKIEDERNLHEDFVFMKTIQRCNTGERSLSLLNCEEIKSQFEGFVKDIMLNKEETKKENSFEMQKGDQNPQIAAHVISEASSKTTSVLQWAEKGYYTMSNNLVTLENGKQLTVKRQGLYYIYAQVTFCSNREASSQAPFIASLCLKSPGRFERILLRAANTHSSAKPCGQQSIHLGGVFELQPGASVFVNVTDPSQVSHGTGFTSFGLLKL

[3] = target: T2, CD154 expressed on cells (CD154 …); experiment: binding to CD154 expressing Jurkat cells (legend calls it BIAcore binding assays), FIG. 3
[4] = target: T1, human CD154; experiment: SPR, Biacore 3000, 25 C; antibody immobilized, CD154 antigen flowed over; average n = 6; exponent sign is a misprint in the cell ('+04'); value taken as E-04, as fixed by the same row's KD x Ka (3.62E-11 x 4.11E+06 = 1.49E-04)
Experimental: as §1, §2

Row | Binder | Fold improvement in KD (compared to IDEC131) [1] | Kd [1] | koff [1] | kon [1] | EC50 (read off the curve) [2] | fold increase in binding affinity compared to IDEC-131 [3] | koff [4]
1 | B1 | 1 fold | 0.151 nM | 0.000525 s⁻¹ | 3.47e+06 M⁻¹ s⁻¹ | ~4 nM |  | 
2 | B2 | 4.7 fold | 0.0289 nM | 0.000128 s⁻¹ | 4.42e+06 M⁻¹ s⁻¹ |  | ~5 fold | 
3 | B3 | 5.2 fold | 0.0262 nM | 0.000117 s⁻¹ | 4.48e+06 M⁻¹ s⁻¹ |  |  | 
4 | B4 | 4.2 fold | 0.0421 nM | 0.000141 s⁻¹ | 3.35e+06 M⁻¹ s⁻¹ |  |  | 
5 | B5 | 4.9 fold | 0.0364 nM | 0.000135 s⁻¹ | 3.7e+06 M⁻¹ s⁻¹ |  |  | 
6 | B6 | 3.9 fold | 0.0362 nM |  | 4.11e+06 M⁻¹ s⁻¹ |  |  | 0.000149 s⁻¹
7 | B7 | 2.5 fold | 0.0576 nM |  | 2.03e+06 M⁻¹ s⁻¹ |  |  | 
8 | B8 | 4.5 fold | 0.0336 nM | 0.00012 s⁻¹ | 3.58e+06 M⁻¹ s⁻¹ |  |  | 
9 | B9 | 4.8 fold | 0.0315 nM | 0.000115 s⁻¹ | 3.65e+06 M⁻¹ s⁻¹ |  |  | 
10 | B10 | 4.2 fold | 0.0344 nM | 0.000133 s⁻¹ | 3.86e+06 M⁻¹ s⁻¹ |  |  | 
11 | B11 | 4.4 fold | 0.0329 nM | 0.00014 s⁻¹ | 4.24e+06 M⁻¹ s⁻¹ |  |  | 
12 | B12 | 4.8 fold | 0.0341 nM | 0.000123 s⁻¹ | 3.61e+06 M⁻¹ s⁻¹ |  |  | 
